These results are taken from a protein production outcome set (Wang et al. 2014).

The data set is described as follows: label from the status in PepcDB records.
With “MPRYKTVEQVLSLMKDRTRVRNIGIIAHVDHGKTTTSDTLLAASGIISPKVAGEALALDYLNVEQQRGITVKAANISLYHEAEGKGYVINLIDTPGHVDFSGRVTRSLRVLDGSIVVVDAVEGIMTQTETVLRQSLEERVRPILFINKVDRLVKELKLSPQEMLNRLLDIIRQVNNLIDMYGEPEFKEKWMINPQAGNVIFGSAKDKWGFSLPMAQKKGINMKNVIDAYTASDKSKLEELAAQAPINEALLDAAIKFVPNPIEAQKYRIPKIWKGDLDNELAKAMLNADPNGPIVFMITDMKVDPHAGLVATGRVFSGTLRSGEELWLVNAKTSQRILQVSLYMGPTRELAEEIPAGNIAAVLGLDRARSGETAISVGFSNVQGSFERLHYISEPVVTIAVEPKNPKDLTKMIDALRKLSIEDPNLVVKINEETGEYLLSGMGFLHLEVSLQLLRENYGIDVVTTPPIVVYRESIRAKSQVFEGKSPNKHNKFYLSVEPLNDKTIELISNGTIREDMDSKEMAKILRDEASWDYDEAKRIIAIDENVNVFVDLTSGVQHLREVMDTVLQGFRLAMKEGPLAHEPIRGVKVILHDAVIHEDPAHRGPAQIYPAVRNSIFAGFLTSRPTLLEPIQKLDIRVPADLIGNVTAVITRKRGKILDVSQIANMSRITAEIPVSESYDMASELRGSTGGRAFWGTEFSRWAPVPDSILLDVVTKIRERKGLPKELPKVEDFLS”, the protein production result was “failed”.

With “MPSCAVEGNPSVHTPHPPRPLYPPRPAMPPGESDESLGGQLRGRPEGAAPHPVALLMARHWESTYDYAVICLASSANVASIVTAGAFQQVVGRLMRSGSAAAVRPALLVAVRDTVREWSAEERISGVLPELRKPAGGRGMRAAKSLTPENRVLAERSFLTLPGLSRCLLWHTEVEAESISVPAGLSGIGTDTATAALEQAREQFREGCVRAHRELAPTKECRLYNRLLDVPIRRGGALLPDVQRHLLGCRFCRNAAEQLSHFEGALGGLLAEAVLGWGARRYLESRPGRTPYGGRARGVSGSGGRPGSGGRHRLLAQIPAPGRRTPVGERGARAVLTGVGIASAAVLATFLVTGLWSNDDGNVDPTASTSASGGRTTVLPTPGSQIPPTVSSPPDSAGLPTTPRQTRLRNLAADLCLDVRGEAKAGAGTKLAVCSSAWTQQWTYEKDGLLRSVADPELCLDSGAVDGVAELGRCVAESSAHGGDVRYDLTVQGEVLSRRKGSLAVTPGNTDPDADIVVKVRDGSDKQRWLTDSPSDQPESLSIAGTTPPSATPATDAPAATPAPTPVPASPGTRLTDAPVASSAPPSENYGERRSLTVTDTSTPEPVLPLTVHLPDLLGEIGVGL”, the protein production entry was “failed”.

Take “MPSETTEHKTGPAVTVVIVSYQSGPTLEPCLARLAAQTFRDFETILIDNFSTDGAPQAAAKAHPWVDFVEAGANLGFAAGNNLAARRAKGRWLVLLNPDAYAEPDWLEELMAGAARHPTVKSFASLQLSADRPGLLDGAGDNVTSAGIPFRGGYGRKPPAVLPEGEVFSACGAAMLIDRDLFLSVGGFDERYFCYCEDVDLGYRLRLYGEPTLLLPKAKVAHVGSASTGVRSDFSIFHGSRNRVWTFLKNTPGWLLPVTLPLHVAVTAGLLLLHWRRGDVAPAIRGIRAALKREDLDQVMADRRLIQARRKASPGAILRVMSIDPAAFIGRRFVIRKWRGA”: the protein production result is reported as “failed”.

Take “MPSGRTHTKINLISLPVVLFMLFSYGLTNFDFLLTFAIGFLVGTTFLTPDLDTYSNAYNKWGFLRIFWYPYKKVMPHRSFFTHTIILGDVIRIAYMLIVFSPFLFLLNVIALDGNLIEMAKEHEVEIVTFVMGIVVASTLHIIADKVNTRRKKMMRKKKKRRR”: the protein production entry was “failed”.

For the sequence “MPSLLETKGPKITLGLDLRGGLNMLLGVQTDEALKNKYLSLASALEYNAKKQNILLKDIKSNLEGISFELLDEDEAKKLDALLLELQGHSQFEIKKEAGFYSVNLTPLEQEELRKNTILQVIGIIRNRLDQFGLAEPVVIQQGKEEISVQLPGIKTLEEERRAKDLISRSAHLQMMAVDEEHNKDAMKMTDLEAQKLGSVLLSDVEMGGKILLKAIPILDGEMLTDAKVVYDQNNQPVVSFTLDAQGAKIFGDFSGANVGKRMAIVLDNKVYSAPVIRERIGGGSGQISGNFSVAQASDLAIALRSGAMSAPIQVLEKRIIGPSLGKDSVKTSIIALVGGFILVMGFMVLYYSMAGVIACLALVVNLFLIVAVMAIFGATLTLPGMAGIVLTVGIAVDANIIINERIREVLRENEGIAKAIHLGYINASRAIFDSNITSLIASVLLYAYGTGAIKGFALTTGIGILASIITAIVGTQGIYQALLPKLTQTKSLYFWFGVNKRA”, the protein production result was “failed”.

As for “MPSLPASAESLLPPTLDESTRLEVLRGLCLLDSPPDPVFDTVAAMAARSLDAEIAVVSLVDEHRQWFKARIGLEARETPRSQAFCAHAIRSDEVMVVPDAQLDPRFCDNPLVLGPPFIRFYAGAPLKLRDGHRIGTLCVIGTSPRPGLDQAAITQLEGLRDLAVLRVENLRSTTYRDGPTGLPNRSRFSEDLDTWLSQRDTAPATTAVAIDVCGSDYFRDMVKALGWEYADGYIALAQRRLAAYLPGGTLLYRLDPTTFGFLAQAEGQRLATLCTKVSKAFTEPLEHQGIPHTAVASIGAVSLQSSYGAADTIRSLTTAVDIARERCLPWSMYERKHDVAQRNTFRLLAALPAALDSSSQLRLHFQPRVDLHDHRCVGVEALLRWQHPMIGPVMPSDFIPMAEKTALINRITAWVIDNGIAQAARWQQQGLDFNLALNVSAADLDRPGFAGLLRRGLDRHKLDPRRLEIEFTESAMIRHPDHLAEQLAAIAALGVHIAIDDFGTGYSNFSYLKQLPASSLKIDQSFIRSLPDSRTDRTLVPAMIQLGHSLGQRVVAEGIESAEAYAQLRAWGCDEGQGYWIAKPMPAAALETWLETPWHEQHAAPVNLLAASLAAARV”, the protein production result is “failed”.

Take “MPSMPFLTRPVLAAGTFSGAPQPTLPTGDGLVLRPWRTEDAPAVHVAFQDPVMHQWHARAADSEEEVRGWITEWQGAWERERGVQWAVADAADDRLLGRVALREWVLGDGVAEVAYWTTADARGRGVAARATRTLAHWALDEIGFQRLELLHAVANDASCRVAQKTGFALEGTKRKAVLHPDGWHDMHLHARVRGD”: the protein production result was “failed”.

With “MPSPARTLLLAFVSAWFLLGGLGHFVFTDFFVGIVPPYVPWPLAAVWVSGVFELLGAAALLVPAWRRLAACGLFILTLCVTPANLYMWQHPDLFPSFPPTLLAARLALQAFLLGCILALMLARDEAPLARR”, the protein production result is reported as “failed”.

As for “MPSSAFPDTRMTLACRRMAGGASALPSFRMGAGLAFQPGLENAMSTVQDYIVADIGLADYGRKELDIAETEMPGLMSCRSELGETKPLKGARISGSLHMTIQTAVLIETLTALGAEVRWASCNIFSTQDHAAAAIAASGVPVFAVKGESLTEYWDYTDRIFQWTDGGQSNMILDDGGDATMYILLGARAEAGENVLVNPSSEEEEILFAQIKKRMAATPGFFTKQRDAIKGVTEETTTGVNRLYQLSQKGLLPFPAINVNDSVTKSKFDNKYGCKESLVDGIRRATDVMMAGKVAVVCGYGDVGKGCAASLIGAGARVKVTEVDPICALQAAMDGFEVVRLEDVVKTADIFITTTGNKDVIRIEHMREMKDMAIVGNIGHFDNEIQVVALKNLKWVNIKPQVDMIEFPAGNRMILLSEGRLLNLGNATGHPSFVMSASFTNQVLAQIELFTKPDAYKNQVYVLPKHLDEKVARLHLEKLGVRLTELSDEQASYIGVTPSGPFKADHYRY”, the protein production result was “failed”.

For “MPSSILSESMIQAFFWSLITIGMYFITQKLYRRWPFWWLMPLALTPILVASVVLLLHVNYQDYFRGTKWLVLLIGPATVAFAIPIYEKRALIRQHWPVLLIGVIVGSFTAIASSWGLAILLGLDDNLRLSLLPRSISTPFAIEISRGIGAAPDLTAIFVIVTGILGAILGEFILSRLPFNSALARGALLGVGAHAAGTAQAHKIGNTEGAIASLAMILVGLFNILLLPLISYLLK”, the protein production result is “failed”.

Turning to “MPTCAPAMVTTLYETPEHACLMFSDLVDDHDDQSVQTNQFLVVDHGHGALIDPGGNMTYNALYLAMNQYFPPKQLDYVLASHADPDIVASAGRWLTSSNCNILISRVWERFLPHFCNVGKTDGRILPIPDTGMAIPIGQSHLLAVPAHFLHSEGNFQFYDPVSRILFSGDLGASMVHAEIAAAPVEDFDAHIPLMAPFHRRYMSGNRVCRLWAEMVRGLEIEWIVPQHGRAFHGPAMVRRFIDWVETLTCGIDLMTQETFRLPALPRVAAGAPLRTPQP”, the protein production result is “failed”.

As for “MPTDRSTPATRHRLGGWMASEEAHMAAYREKIAGEARAHAGERLRTPAVQELARLFDDNAVLRMSLTRAIDEALESGRKLGYASIGELMTVIDHLMTYTPPFSESSLIVCPLNAFLDWPMCMPSGHAVFRDAAVNAHLKQVLNVWCDFLGGPHSCTHLDTSAPDGWFCDEARERLGLSQFQYQEDQPHWGFASWNDFFTRRFRADARPVTAPGDPHVIVSACEAQPYHAESNLKIRDKFWIKGQPYSLRDIFTPARLPLAERFVGGDLYQAYLSAYNYHRWHAPVRGTVTHAYRVDGTYYSVAEAEGPDPAGLNDSQGYMTAVAARAVIAIDCDDPGIGTVVGVFVGMGDVSSCVIEVMPGQRIDKGEEIGYFQYGGSTYCLLFEPGVIDHFVHAPPFDDDTPVVQVNAPVAIAR”, the protein production entry is “failed”.

Turning to “MPTDYIRNGVLYVTENYLCFESSKSGSSKRNKVIKLVDITDIQKYKVLSVLPGSGMGIAVSTPSTQKPLVFGAMVHRDEAFETILSQYIKITSAAASGGDS”, the protein production result is on record as “failed”.

Turning to “MPTFNPELHAQTLNSERAYFVQPDADPAFTPHIGALVEMLTYARLTTLQAVEGLPEDQLWATAPGFANSIGTLLAHIAAVERVYHVLSFQGRDVTPEDDGAAYWGLTMGKEGTAPARLPTLDELRAELADARAETLRVFAAKDDAWLAEPLGPGWANQHWAWFHVMEDEVNHRGQLRLLRQVLAPEEGG”, the protein production entry is listed as “not failed”.

With “MPTIEDRYARLDAARWLAALAVVLLHSAAQTVSDPAAYGSHAWLAANLYDSAAHWCVPVFVMVSGALLLDPDQPHDARRFYSRRMARVCAPLLFWTLFYLAWRTALDWWDDGRLDFSFWPRKVAEGAPYYHLWYLYMIVGLYLFAPLVRLLYARSQPRARALWVVGILGVAVLDALYRRALGGGNGLFLTWFLPYLGYFVAGRLIFDGELRMPRPGLVLAASVAATAWGVSALSDSRALDLYFYDYFSVTVPLMSLAAFQLIVGSPRLPALPALPALAPLTFGIYLIHPLFLDLAHRIGAARAWRPDAWGVPAITAAVFALSALASWMLRRHRLTRRLV”, the protein production entry was “failed”.

Turning to “MPTLDALTPIFRQVFDDDSIVLTRETSANDIDAWDSLSHMNLIVSLEVHYKIKFALGELQKLKNVGDLADLVDKKLARKLEHHHHHH”, the protein production result was “failed”.

On to “MPTLLMITPENLEIKRFRAYQLNNFMQLTMPYLAGFVPKEYDIRLLDEHTEPIIFEKFDLVAITVNTPNAPYAYAISKKFRELGSWVALGGPHVTLNPEEAALHCDTIFIGEAEETWPQFLNDFLCKKAQKVYTSSRAPSLAGLPIPRRDLIVGNRFISGAVFASRGCPHNCSYCSLKKIYHNTFRTRPVDEVIKDIASMPNKYFVFWDDNFFADPSYTKALLKDLAKLNKKWAAQVTAHSCEDEELLRLAKSAGCLYLFLGLESFSEQGLKDANKSFNKIEQYGKIADKLHRHGISIQAGIVFGFDSDTPDVFETTLKACNDIGIDGVTASILTPFPGTGIYDQYKNEGRLLDVGWNYYNGKTRVAYVPKQMSPEELLNGYNEFRRKFYSWKSIIKRICKSRVNIFYNLAMNYGYRQAYRNFAKLDIGDSKGMNIFEQLI”, for which the protein production result was “failed”.
